Assay results taken from the supplement of paper PMC7125110.
± gives the standard error. This sample holds only a part of the variants without activity.

B1: glmS ribozyme (parent)
chain: AUAAAAGCGCCAGAACUACAGAAAUGUAGUUGACGAGGAGGAGGUUUAUCGAAUUUUCGGCGGAUGCCUCCAAA

Variants of: B1
Assay: self-cleavage kobs at 10000 uM GlcN6P; higher = faster cleavage; RNA array
Settings: with glucosamine-6-phosphate
Summary of the method: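 kobs was derived by fitting per-tile medians to one- or two-exponential decays after normalising signals to baseline and to non-cleaving reference variants. Those signals came from barcoded ribozyme variants transcribed in situ by E. coli RNA polymerase on sequenced MiSeq chips, followed through a hybridised Cy3 probe at 37 °C and imaged over ~14 h. Glucosamine-6-phosphate (40 μM to 10 mM) in HEPES/KCl/Mg(OAc)2 buffer was flowed in. Weighted Michaelis–Menten fits across concentrations then gave kcat and KM.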

Variant	self-cleavage kobs at 10000 uM GlcN6P
AUAAAUGCGCCAGAACUACAGAAAUGUAGUUGACGAGGAGGAGGUUGAUAGAAUUUUCGGCGGAUGCCUCCAAA [A6U U47G C50A]	< 1e-05 s⁻¹
AUAAAAGCGCCAGAACUACAGAAAUGUAGUUGACGCGGAGGAGGUUUAUCGAAAUUUCAGCGGAUGCCUCCAAA [A36C U54A G59A]	< 1e-05 s⁻¹
AUAAAAGCGCCAGAACUACAGAAAUGUAGUUGACGAGGAGGAUGUUUAUUGAAUUUUCGGCGAAUGCCUCCAAA [G43U C50U G63A]	< 1e-05 s⁻¹
AUAAAAGCGCCAGCACUACAGAAAUGUAGUAGACGAGGAGGAGGUUUAUCGAAUUUUCGGCGGAUGCCGCCAAA [A14C U31A U69G]	5.33e-05 ± 1.5e-05 s⁻¹
AUAAAAGCGACAGAACUACAGAAAUGUAGUUGACGAGGAGGAGGUUUAUCGAAUUUUCUGCGGAUGCCUCCAAA [C10A G59U]	7.46e-05 ± 7.9e-06 s⁻¹
AUAAAAGCGCCAGAACUACAGAAAUGUAGUUGACGAGGAGGAGGUUUUUCGAAUUUUCUGCGGGUGCCUCCAAA [A48U G59U A64G]	< 1e-05 s⁻¹
AUAAAAGCGCCCGAACUACAGAAAUGUAGUUGACGAGGAGGAGGUUUAACGAAUUUUCGGCGGAUCCCUCUAAA [A12C U49A G66C C71U]	< 1e-05 s⁻¹
AUAAAAGCGCCAGAACUACAGAAAUGUAGUUGACGAGGUGGAGAUUUAUCGAAUUUUCGGCGGAUGGCUCCAAA [A39U G44A C67G]	0.00582 ± 0.0014 s⁻¹
AUAAAAGCGCCAGAAUUACAGAAAUGUAGUUGACGAAGAGGAGGUUUAUCGAAUUUUCGGCGGAGGCCUCCAAA [C16U G37A U65G]	0.000183 ± 3.8e-05 s⁻¹
AUAAAAGCGCCAGAAAUACAGAAAUGUAGUAGACGAGGAGGAGGUUUAUCGAAUUUUCGGCGGAUGCCUCGAAA [C16A U31A C71G]	4.01e-05 ± 1.1e-05 s⁻¹
AUAAAAGCUCCAGAACUACAGAAAUGUAGUUGACGAGGAGAAGGUUUAUUGAAUUUUCGCCGGAUGCCUCCAAA [G9U G41A C50U G60C]	< 1e-05 s⁻¹
AUAAAAGCGCCAGAACUACAGAAAUGUAGUUGACCAGGAGGUGGUUUAUCGAAUUUUCGGCGGAUGCCUCUAAA [G35C A42U C71U]	< 1e-05 s⁻¹
AUAAAAGCGCCAGAACUACAGAAAUGUAGUUGACGAGGAGGAGAUUUAUCGAAUUUUAGGCGGAUGUCUCCAAA [G44A C58A C67U]	0.000308 ± 6.5e-05 s⁻¹
AUAAAAGCGCCAGAACUACAGAAAUGUAGUUGACGAGCAGGGGGUUUAUCGAAUUUUCGGCGGGUGCCUCCAAA [G38C A42G A64G]	< 1e-05 s⁻¹
AUAAAAGCGCCAGAACUACAGAAAUGUAGUUGACGAGGAGGGGGUUUUUCGAAUGUUCGGCGGAUGCCUCCAAA [A42G A48U U55G]	0.000404 ± 8.1e-05 s⁻¹
AUAAAAGCGCCAGAACUACAGAAAUGUAGAUGACGAGGAGGGGGUAUAUCGAAUUUUCGGCGGAUGCCUCCAAA [U30A A42G U46A]	0.000409 ± 9.1e-05 s⁻¹
AUAAAAGCGCCAGAACUACAGAAAUGUAGAUGACGAGGAGGAGGUUUAUCGAAUUUUCGGCGGAUGGCUCGAAA [U30A C67G C71G]	< 1e-05 s⁻¹
AUAAAAGCGCCAGAACUACAGAAAUGUAGUUGACGAAGAGGAGGAUUAUCGAAUUUUCGGUGGAUGUCUCCAAA [G37A U45A C61U C67U]	< 1e-05 s⁻¹
AUAAAAGCGCCAGAACUACAGAAAUGUACUUGACGAGGAGGAGGAAUAUCGUAUUUUCGGCGGAUGCCUCCAAA [G29C U45A U46A A52U]	3.37e-05 ± 1.4e-05 s⁻¹

Variant	self-cleavage kobs at 10000 uM GlcN6P
AUAAAAGCACCAGAAGUACAGAAAUGUAGUUGACGAGGAGGAGGUUUAUCAAAUUUUCGUCGGAUGCCUCCAAA [G9A C16G G51A G60U]	< 1e-05 s⁻¹
AUAAAAGCGCCCGAACUACAGAAAUGUAGUUGACGAGGAGGAGGUUUAUCGUAUUUUCGGCGGAUGGCUCCAAA [A12C A52U C67G]	0.000146 ± 3.5e-05 s⁻¹
AUAAAAGCGCCAGAACUACAGAAAUGUAGUUGACGAGGAGGAGGUUUAACGAAUUUUCGGCGGAGGGCACCAAA [U49A U65G C67G U69A]	< 1e-05 s⁻¹
AUAAAAGCGCCAGAACUACAGAAAUGUAGUUGACAAGGAGGAGGUUUAGCGAAUUUUCGGUGGAUGCCUCCAAA [G35A U49G C61U]	< 1e-05 s⁻¹
AUAAAAGCGCCAGAACUACAGAAAUGUAGUUGACGAGGAGGAGGUUUAUCGAAUUUACGGCGGGUGCCUCCAAA [U57A A64G]	0.000214 ± 4.6e-05 s⁻¹
AUAAAAGCGCCAGUACUACAGAAAUGUAGUUGACGAGGAGGAGGUGUAUCGAGUUUUCGGCGGAUGCCUCCAAA [A14U U46G A53G]	0.000633 ± 9.6e-05 s⁻¹
AUAAAAGCGACAGGACUACAGAAAUGUAGUUUACGAGGAGGAGGUUUCUCGAAUUUUCAGCGGAUGCCUCCAAA [C10A A14G G32U A48C G59A]	< 1e-05 s⁻¹
AUAAAUGCGCCAGAACUACAGAAAUGUAGUUGACGAGGAGGAGGGUUAUCGAAUUUUCGGCGGAUACCUCCAAA [A6U U45G G66A]	0.000175 ± 4.1e-05 s⁻¹
AUAAAAGCGCCAGAACUACAGAAAUGUAGUUGACGAGGAGGAGGUUGAUCGAAUUUUCAGCGGAUGCCUCCAAA [U47G G59A]	3.68e-05 ± 1.3e-05 s⁻¹
AUAAAAGUGCCAGAACUACAGAAAUGUAGUUCCCGAGGACGAGGUUUAUCGAAUUUUCGGCGGAUGCCUCCAAA [C8U G32C A33C G40C]	< 1e-05 s⁻¹
AUAAAAGCGCCAGAACUACAGAAAUGUAGUUGACGAGGAGGAGGUUUAUCGAAUGUUCGGAGGAUGCCUCGAAA [U55G C61A C71G]	< 1e-05 s⁻¹
AUAAAAGCGCCCGAACUACAGAAAUGUAGUUGACGAGGUGGAGGUUUCUCGAAUUUUCGGCGGAUGCCUCCAAA [A12C A39U A48C]	4.14e-05 ± 1e-05 s⁻¹
AUAAAAGCGCCAGAACUACAGAAAUGUAGUUGACUAGGAGGAGGUUCAUCUAAUUUUCGGCGGAUGCCUCCAAA [G35U U47C G51U]	< 1e-05 s⁻¹
AUAAAAGCGCCAGAACUACAGAAAUGUCGUUGACGAGGAGGAGGUUUAUCGAAUUUUCGGCGGAUGCUUCCAAA [A28C C68U]	0.00228 ± 0.00063 s⁻¹
AUAAAAGCGCCAUAACUACAGAAAUGUAGUUGAUGAGGAGGAGGUUUAUCGAAUUUUCGGCGUAUGCCUCCAAA [G13U C34U G63U]	< 1e-05 s⁻¹
AUAAAAGCGCCCGGACUACAGAAAUGUAGUUGACGAGGAGGAGGUUUAUCGAAAUUUCGGCGGAUGCCUCCAAA [A12C A14G U54A]	0.0236 ± 0.0056 s⁻¹
AUAAAAGCGCCAUAACUACAGAAAUGUAGUUGACGACGAGGACGUUUAUCGAAUUUUCGGCGGAUGCCUCCAAA [G13U G37C G43C]	< 1e-05 s⁻¹
AUAAAAGCGCCAGAACUACAGAAAUGUAGUUGACGAGGACGAGGUUUAUCGAGUUUUCGGCGGAUCCCUCCAAA [G40C A53G G66C]	0.000137 ± 2.8e-05 s⁻¹
